Changes are numbered by the printed parent chain. Names may count otherwise.

Test [1] addresses T1, human IL2Rα Fc fusion protein (human, UniProt P01589 22-213, limits assumed).
T1 construct: also called CD25; not shown: Fc part
T1 sequence (looked up): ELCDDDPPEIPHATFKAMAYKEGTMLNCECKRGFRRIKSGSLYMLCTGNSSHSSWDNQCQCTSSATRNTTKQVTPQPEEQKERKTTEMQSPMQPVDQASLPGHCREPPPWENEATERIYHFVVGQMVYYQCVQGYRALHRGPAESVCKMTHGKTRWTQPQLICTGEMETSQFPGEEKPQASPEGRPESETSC
Kind of test: ELISA on coated receptor-Fc, anti-His detection; grade by OD450 (medium: 0.7-1.5). The method, then: (§1) Mammalian cell-produced agonists were characterized for their binding activities to respective IL2Rβ and IL2Rα receptors by ELISA. Briefly, 384 well plate was immobilized with human IL2Rα and IL2Rβ Fc fusion proteins at a final concentration of 2 μg/mL in 1× PBS in total volume of 25 μL per well. The plate was incubated overnight at 4° C. and blocked with 80 μL of superblock per well for 1 hour. The purified clones were added to IL2Rα or IL-2Rβ wells in parallel in duplicates as a titration, with the highest concentration of 1 μM, followed by a 10 point 5× serial dilution of the clones. The binding activity was detected by adding 25 μL of anti-His HRP diluted at 1:5000 in 1× PBST. In between each step, the plate was washed three times with 1× PBST using a plate washer. The plate was then developed with 25 μL of TMB substrate for five minutes and stopped by adding 25 μL of 2N sulfuric acid. The plate was read at OD450 nm Biotek plate reader and the bar graph at 1 μM of IL2 was generated with Prism 8.1 software (FIG. 2).
Background: An ELISA detects its analyte on a solid surface through an enzyme-linked reagent.

The target of test [2] is T2, human IL2Rβ Fc fusion protein (human, UniProt P14784 27-239).
T2 construct: also called ILR2β; CD122; not shown: Fc part
T2 sequence (looked up): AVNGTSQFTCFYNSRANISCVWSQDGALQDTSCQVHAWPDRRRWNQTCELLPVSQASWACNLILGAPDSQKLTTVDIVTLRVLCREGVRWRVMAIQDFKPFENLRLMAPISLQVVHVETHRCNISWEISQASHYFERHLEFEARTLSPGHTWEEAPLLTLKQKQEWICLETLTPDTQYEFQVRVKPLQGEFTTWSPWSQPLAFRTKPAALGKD
Described as above. The method, then:
as §1

Test [3] has as its target T2, human IL2Rβ Fc fusion protein. The test is described as follows: SPR (Biacore T200), receptor captured on Protein A chip. The method, then:
(§2) The assay was run with Biacore T200 control software version 2.0. For each cycle, 1 μg/mL of human IL2Rβ or IL2Rα was captured for 60 seconds at flow rate of 10 μL/min on flow cell 2 in 1× HBSP buffer on Protein A sensor chip. 100 nM and 20 nM of HIS tag purified engineered IL2 mutant was injected onto both reference flow cell 1 and IL2Rβ or IL2Rα captured flow cell 2 for 150 seconds at flow rate of 30 μL/min followed by washing for 300 seconds. The flow cells were then regenerated with Glycine pH 2 for 60 seconds at a flow rate of 30 μL/mins. The kinetics data was analyzed with Biacore T200 evaluation software 3000. The specific binding response unit was derived from subtraction of binding to reference flow cell 1 from target flow cell 2.
(Surface plasmon resonance follows binding to a sensor surface in real time, without labels.)

Test [4] deals with T1, human IL2Rα Fc fusion protein. Kind of test: ELISA, single concentration, anti-flag detection, E. coli-produced clone. The protocol:
(§3) Supernatants containing engineered IL2 mutants were assessed with sandwich ELISA assay to screen for IL2Rα binding. Briefly, 96-well plate was immobilized with human Fc and human IL2Rα, respectively, at a final concentration of 2 μg/mL in 1× PBS in total volume of 50 μL per well. The plate was incubated overnight at 4° C. followed by blocking with 200 μL of superblock per well for 1 hour. 100 μl of supernatant was added to both Fc and IL2Rα immobilized wells and incubated for 1 hour with shaking. The engineered IL2 mutant binding was detected by adding 50 μL of anti-Flag HRP diluted at 1:5000 in 1× PBST. In between each step, the plate was washed three times with 1× PBST in a plate washer. The plate was then developed with 50 μL of TMB substrate for five minutes and stopped by adding 50 μL of 2N sulfuric acid. The plate was read at OD450 nm using a Biotek plate reader and the binding and selectivity was analyzed.
as §3, with “Single clones were next screened for IL2Rβ binding. IL2Rβ binding screening ELISA was developed for the identification of individual” for “Supernatants containing”, “mutant.” for “mutants were assessed with sandwich ELISA assay to screen for IL2Rα binding.”, “IL2Rβ,” for “IL2Rα,”, “IL2Rβ” for “IL2Rα”
(§4) To further triage, the engineered IL2 clones with unique sequences were produced in E. coli. In short, the glycerol stock of each engineered agonist clone was inoculated into TB medium for overnight growth. The next day, cells from the overnight culture were inoculated into TB medium and grown to a cell density of OD₆₀₀ between 0.6-0.8. IPTG was added to a final concentration of 1 mM to induce the expression during culture at 30° C. overnight. The supernatant was collected by centrifugation.

Test [5] concerns the target T2, human IL2Rβ Fc fusion protein. The description is as above. The protocol:
as §3
as §3, with “Single clones were next screened for IL2Rβ binding. IL2Rβ binding screening ELISA was developed for the identification of individual” for “Supernatants containing”, “mutant.” for “mutants were assessed with sandwich ELISA assay to screen for IL2Rα binding.”, “IL2Rβ,” for “IL2Rα,”, “IL2Rβ” for “IL2Rα”
as §4

The target of test [6] is T1, human IL2Rα Fc fusion protein. Kind of test: SPR (Biacore T200), receptor captured on Protein A chip, IL2 at 100 nM and 20 nM. The protocol: as §2
The target of test [7] is T2, human IL2Rβ Fc fusion protein. Kind of test: ELISA on coated receptor-Fc, anti-His detection, single point 1 µM. The protocol: Back-mutations were characterized for their binding activities to IL2Rβ and IL2Rα receptors by ELISA. Briefly, 384 well plate was immobilized with human IL2Rα and IL2Rβ Fc fusion proteins at a final concentration of 2 μg/mL in 1× PBS in total volume of 25 μL per well. The plate was incubated overnight at 4° C. and blocked with 80 μL of superblock per well for 1 hour. […] The IL2 mutant binding was detected by adding 25 μL of anti-His HRP diluted at 1:5000 in 1× PBST. In between each step, the plate was washed three times with 1× PBST using a plate washer. […] The plate was then developed with 25 μL of TMB substrate for five minutes and stopped by adding 25 μl of 2N sulfuric acid. The plate was read at OD450 nm Biotek plate reader (Table 6) and the data was analyzed with Prism 8.1 software to generate bar graph (FIG. 5).

The target is the same in test [8]. The test is described as follows: SPR (Biacore T200), receptor captured on Protein A chip, IL2 at 100 nM and 20 nM. The method, then: as §2
For test [9] the target is unchanged. Kind of test: ELISA: human IL2Rβ Fc fusion coated at 2 µg/mL, purified His-tagged IL2 titrated from 1 µM in 5x steps, anti-His HRP, OD450. The method, then:
as §1

B1: EP565, mammalian cell-produced, with F35L, R38D and F42R (ligand)
chain: APASSSTKKTQLQLEHLLLDLQMILNGINNYKNPLLTDMLTRKFYMPKKATELKHLQCLEEELKPLEEVLNLAQSKNFHLRSRQLISNMNGIILKLKGSETTFMCEYADETATIVEFLNRWITFSQSIISTLT
notes: His-Flag tag not in the parts; also called 2021EP22-F10
For the molecule B1, the OD450 in test [1] and in test [2] was 0.7 to 1.5 od each time.

B2: EP567 (clone 2021EP21-C04), E. coli-produced (ligand)
chain: APASSSTKKTQLQLEHLLLDLQMILNGINNYKNPKLTRMLTFKFYMPKKATELKHLQCLEEELKPLEEVLNLAQSKNFHLSLREPIGNIVTSVRELKGSETTFMCEYADETATIVEFLNRWITFSQSIISTLT
One may read the Kd as the free concentration of one partner at which half of the binding sites on the other are occupied at equilibrium, for simple one-to-one binding. Read a high Kd as weaker binding. Take B2: in test [3], the binding result was “no binding (tested: Rmax < 5RU; 100 nM and 20 nM)”. Moreover, the OD450 nm in test [4] was found to be 0.05 OD450; in test [5] it was 0.068 OD450. This molecule also returned a Kd in test [6] of 188 nM.

B3: EP596, IL2Rβ enhanced binding agonist (ligand)
chain: B1 chain with R81T, S82A, Q84D, L85A, S87D, M89I, G91V, I93V, L94Q, K95E
notes: Control in SPR and ELISA
As usually defined, the EC50 (read off the curve) is the concentration at which the effect is half-maximal. Low values mean an effect from little substance, high ones a need for much substance. B3: the “Average OD (450 nm)” value in test [7] turned out to be 1.63 OD450. The molecule also registered a Kd in test [8] of 1.03 nM. For the same molecule, in [9], the “EC50 (read off the curve)” value was roughly 1 nM.

The record behind these values is US20250326813A1 (ELPIS BIOPHARMACEUTICALS, published 2025).
